Among the data in paper PMC7968844 are degradation_or_half_life values, retold here.

Like-named read-outs stand apart in the source and are kept apart here.

Regarding “ERα: ERα-2M (T553A + S554A) in GREB1-KO cells”, the degradation_or_half_life result is “no change” (O-GlcNAc at S554) and “no change” (O-GlcNAc at T553).

Take ERα: GREB1-KO: the degradation_or_half_life result reads like this: (O-GlcNAc at S554) “decreases”; (O-GlcNAc at T553) “decreases”.
